# Results as given in patent publication US20230099801A1, “RESTORATION OF T CELL ACTIVITY VIA THE CD39/CD73 AXIS” (INNATE PHARMA, priority 2017, published 2023).
# T1: soluble recombinant human CD39 protein (Homo sapiens, UniProt P49961)
# T1 construct: made in house; host or cells: CHO cells
# T1 sequence (P49961 with tags, fused parts or gaps): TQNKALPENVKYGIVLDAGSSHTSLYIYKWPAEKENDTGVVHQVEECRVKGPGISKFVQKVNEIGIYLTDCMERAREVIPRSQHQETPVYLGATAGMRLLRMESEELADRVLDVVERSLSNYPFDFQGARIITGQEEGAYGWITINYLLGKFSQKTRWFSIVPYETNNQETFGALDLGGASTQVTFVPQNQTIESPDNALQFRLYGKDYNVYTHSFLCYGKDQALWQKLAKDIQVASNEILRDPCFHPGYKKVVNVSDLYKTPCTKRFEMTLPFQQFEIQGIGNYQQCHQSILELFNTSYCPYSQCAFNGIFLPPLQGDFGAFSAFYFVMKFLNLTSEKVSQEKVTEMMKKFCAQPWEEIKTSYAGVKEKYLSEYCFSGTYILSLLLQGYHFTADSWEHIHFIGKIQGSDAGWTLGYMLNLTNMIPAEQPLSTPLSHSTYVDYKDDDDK
# T2: CD39 mutant 11 (Homo sapiens, UniProt P49961, DUP378-378/E375A/K376G/L372K/N371K/V377S)
# T2 construct: expressed in transfected cells; host or cells: HEK-293T cells
# T2 sequence (P49961 with tags, fused parts or gaps N371K/L372K/E375A/K376G/DUP378-378): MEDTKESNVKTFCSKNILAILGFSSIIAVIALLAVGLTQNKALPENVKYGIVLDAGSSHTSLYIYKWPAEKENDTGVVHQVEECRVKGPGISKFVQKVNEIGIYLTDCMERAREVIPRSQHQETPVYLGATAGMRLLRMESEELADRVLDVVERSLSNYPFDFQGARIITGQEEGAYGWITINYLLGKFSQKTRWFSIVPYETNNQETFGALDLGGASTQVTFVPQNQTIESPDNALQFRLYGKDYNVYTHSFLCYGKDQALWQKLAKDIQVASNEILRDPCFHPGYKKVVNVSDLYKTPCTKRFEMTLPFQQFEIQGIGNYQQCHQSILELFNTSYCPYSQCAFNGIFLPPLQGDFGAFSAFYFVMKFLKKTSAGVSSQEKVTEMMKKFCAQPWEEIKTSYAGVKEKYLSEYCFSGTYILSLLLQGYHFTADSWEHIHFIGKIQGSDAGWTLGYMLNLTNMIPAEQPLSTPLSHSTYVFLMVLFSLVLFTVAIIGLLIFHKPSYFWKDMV
# T3: CD73 mutants having a substitution at residue K136 (Homo sapiens, UniProt P21589, K136A)
# T3 sequence (P21589 27-549 K136A): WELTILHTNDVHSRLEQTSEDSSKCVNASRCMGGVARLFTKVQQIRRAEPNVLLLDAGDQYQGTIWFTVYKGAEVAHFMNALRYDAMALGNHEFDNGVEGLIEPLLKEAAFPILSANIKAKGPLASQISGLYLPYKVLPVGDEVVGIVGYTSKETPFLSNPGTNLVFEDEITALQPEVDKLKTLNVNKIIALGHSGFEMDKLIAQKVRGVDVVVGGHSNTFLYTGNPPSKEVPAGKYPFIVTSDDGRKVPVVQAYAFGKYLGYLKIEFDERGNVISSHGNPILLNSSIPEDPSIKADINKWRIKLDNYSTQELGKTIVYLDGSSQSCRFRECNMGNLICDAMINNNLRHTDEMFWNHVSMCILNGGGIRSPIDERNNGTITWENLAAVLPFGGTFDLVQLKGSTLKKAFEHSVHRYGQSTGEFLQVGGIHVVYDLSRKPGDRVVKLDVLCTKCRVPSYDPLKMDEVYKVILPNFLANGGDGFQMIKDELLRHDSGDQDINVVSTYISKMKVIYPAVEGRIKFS
# T4: CD73 mutants having substitutions at residues A99, E129, K133, E134 and A135 (Homo sapiens, UniProt P21589, A135S/A99S/E129A/E134N/K133A)
# T4 sequence (P21589 27-549 A99S/E129A/K133A/E134N/A135S): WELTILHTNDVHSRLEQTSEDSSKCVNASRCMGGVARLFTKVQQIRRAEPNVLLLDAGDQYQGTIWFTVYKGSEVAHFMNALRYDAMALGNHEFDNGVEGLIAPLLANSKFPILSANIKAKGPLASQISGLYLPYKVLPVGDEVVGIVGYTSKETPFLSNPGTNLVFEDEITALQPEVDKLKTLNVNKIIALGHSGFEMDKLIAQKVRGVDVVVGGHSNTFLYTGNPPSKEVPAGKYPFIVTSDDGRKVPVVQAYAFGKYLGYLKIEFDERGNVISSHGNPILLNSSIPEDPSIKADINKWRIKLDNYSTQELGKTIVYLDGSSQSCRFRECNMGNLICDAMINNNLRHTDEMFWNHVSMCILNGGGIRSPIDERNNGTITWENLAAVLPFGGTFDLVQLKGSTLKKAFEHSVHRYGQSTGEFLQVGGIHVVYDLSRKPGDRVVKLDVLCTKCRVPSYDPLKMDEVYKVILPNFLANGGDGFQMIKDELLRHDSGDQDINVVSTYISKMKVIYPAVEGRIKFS
# How the values were obtained:
# [1] = biological target: T1, soluble recombinant human CD39 protein; assay: Inhibition of the enzymatic (ATPase) activity of soluble CD39, Cell Titer Glo; format: biochemical; settings: 400 ng/ml soluble CD39, 20 μM ATP
# Description: The ability of an antibody to inhibit soluble recombinant human CD39 protein can be tested by detecting ATP after incubating test antibody with soluble CD39 protein (e.g., the CD39 protein having the amino acid sequence of SEQ ID NO: 5, as produced in Example 1, optionally further comprising a purification tag or other functional or non-functional non-CD39-derived amino acid sequence). See, e.g., Example 1. Briefly, ATP can be quantified using the Cell Titer Glo™ (Promega), in an assay in which dose ranges of test antibody are incubated with soluble recombinant human CD39 protein described in Example 1, for 1 hour at 37° C. 20 μM ATP are added to the plates for 30 additional minutes at 37° C. before addition of CTG reagent. Emitted light is quantified using an Enspire™ luminometer after a short incubation period of 5 min in the dark.
# The inhibition by antibodies of the enzymatic activity of soluble CD39 protein produced was evaluated using Cell Titer Glo™ (Promega, reference G7571) that allows assessment of ATP hydrolysis through use of a reagent that generates a luminescent signal proportional to the amount of ATP present. In this way, inhibition of the soluble-CD39-mediated ATP hydrolysis can be assessed. Briefly, dose ranges of anti-CD39 antibodies from 100 μg/ml to 6×10^−3 μg/ml were incubated with 400 ng/ml of soluble recombinant human CD39 protein having the amino acid sequence described in the Methods section (SEQ ID NO: 54), for 1h at 37° C. 20 μM ATP was added to the plates for 30 additional minutes at 37° C. before addition of CTG (Cell Titer Glo) reagent. Emitted light was quantified using an Enspire™ luminometer after a short incubation period of 5 min in the dark. Anti-CD39 antibody efficacy was determined by comparing emitted light in presence of antibody with ATP alone (maximal light emission) and ATP together with soluble CD39 protein (minimal light emission).
# [2] = biological target: T2, CD39 mutant 11; assay: Epitope mapping by flow cytometry on Hek-293T cells expressing CD39 mutant 11; format: binding; settings: insertion 377V, V377S (Table 1)
# Description: (§1) CD39 mutants were generated by PCR. The sequences amplified were run on agarose gel and purified using the Macherey Nagel PCR Clean-Up Gel Extraction kit (reference 740609). The purified PCR products generated for each mutant were then ligated into an expression vector, with the ClonTech InFusion system. The vectors containing the mutated sequences were prepared as Miniprep and sequenced. After sequencing, the vectors containing the mutated sequences were prepared as Midiprep using the Promega PureYield™ Plasmid Midiprep System. HEK293T cells were grown in DMEM medium (Invitrogen), transfected with vectors using Invitrogen's Lipofectamine 2000 and incubated at 37° C. in a CO2 incubator for 48 hours prior to testing for transgene expression. The targeted amino acid mutations in the table 1 below are shown using numbering of SEQ ID NO: 2.
# (§2) In order to define the epitopes of anti-CD39 antibodies, we designed CD39 mutants defined by substitutions of amino acids exposed at the molecular surface over the surface of CD39.
# (§3) Mutants were transfected in Hek-293T cells, as shown in the table 1, using numbering of SEQ ID NO: 2. Dose-ranges of test antibodies (10-2.5-0.625-0.1563-0.0391-0.0098-0.0024-0.0006 μg/ml) are tested on the 20 generated mutants by flow cytometry.
# [3] = test system: other CD39 mutants of Table 1; assay: Epitope mapping by flow cytometry on the other CD39 mutants of Table 1; format: binding, human
# Description: as §1, §2
# Mutant 5 contains amino acid substitutions at residues Q96, N99, E143 and R147.
# as §3
# [4] = biological target: T3, CD73 mutants having a substitution at residue K136; settings: cited from earlier work
# [5] = test system: CD73 mutants having a substitution at residues K97, E125, Q153 and K330; settings: cited from earlier work
# [6] = biological target: T4, CD73 mutants having substitutions at residues A99, E129, K133, E134 and A135; settings: cited from earlier work
Molecule,inhibition of the enzymatic (ATPase) activity of soluble CD39 protein [1],binding to cells expressing mutant 11 of CD39 [2],binding to any other mutant of the 20 CD39 mutants [3],binding to CD73 mutants having a substitution at residue K136 [4],"binding to CD73 mutants having a substitution at residues K97, E125, Q153 and K330 [5]","binding to CD73 mutants having substitutions at residues A99, E129, K133, E134 and A135 [6]"
"I-399: anti-CD39 antibody, VH SEQ ID NO: 30, VL SEQ ID NO: 31 (antibody, listed as Mus musculus, V domains shown) VH: PVQLQQPGAEVVMPGASVKLSCKASGYTFTSFWMNWMRQRPGQGLEWIGEIDPSDFYTNSNQRFKGKATLTVDKSSSTAYMQLSSLTSEDSAVYFCARGDFGWYFDVWGTGTSVTVSS VL: EIVLTQSPTTMTSSPGEKITFTCSASSSINSNYLHWYQQKPGFSPKLLIYRTSNLASGVPTRFSGSGSGTSYSLTIGTMEAEDVATYYCQQGSSLPRTFGGGTKLEIK",showed inhibition,loss of binding,without loss of binding,,,
"3C12: anti-CD73 antibody, VH and VL of SEQ ID NOS: 44 and 45 (antibody, listed as Mus musculus, V domains shown) VH: QIQLQQSGPELVKPGASVKVSCKASGYAFASYNMNWVKQSHGKSLDWIGYIDPYNGGSSYNLTFKGKATLTVDKSSTTAYMHLNSLTSEDSAVYYCARGYGNYKAWFAYWGQGTLVTVSAASTKGP VL: DVVMTQTPKFLLVSAGDRVTITCKASQSVSNDVAWYQQKPGQSPKLLIYYASTRYTGVPDRFTGSGYGTDFTFTISTVQAEDLAVYFCQQDYSSLTFGAGTKLELKRTVAAP",,,,lose binding,lose binding,lose binding
"8C7: anti-CD73 antibody, VH and VL of SEQ ID NOS: 42 and 43 (antibody, listed as Mus musculus, V domains shown) VH: EVQLQQSGPELVKPGASVKVSCKASGYAFASYNMNWVKQSHGKSLDWIGYIDPYNGGSSYNLTFKGKATLTVDKSSTTAYMHLNSLTSEDSAVYYCARGYGNYKAWFAYWGQGTLVTVSAASTKGP VL: SIVMTPTPKFLLVSAGDRVTITCKASQSVSNDVAWYQQKPGQSPKLLIYYASTRYTGVPDRFTGSGYGTDFTFTISTVQAEDLAVYFCQQDYSSLTFGAGTKLELKRTVAAP",,,,lose binding,lose binding,lose binding
"11E1: anti-CD73 antibody, VH and VL of SEQ ID NOS: 40 and 41 (antibody, listed as Mus musculus, V domains shown) VH: EIQLQQSGPELVKPGASVKVSCKASGYAFTSYNMYWVKQSHGKSLEWIGYIDPYNGGTSYNQKFKGKATLTVDKSSSTAYMHLNSLTSEDSAVYYCARGYGNYKAWFAYWGQGTLVTVSA VL: DAVMTQTPKFLLVSAGDRVTITCKASQSVTNDVAWYQQKPGQSPKLLIYYASNRYTGVPDRFTGSGYGTDFTFTISTVQAEDLAVYFCQQDYSSLTFGAGTKLELK",,,,lose binding,lose binding,lose binding
"6E1: anti-CD73 antibody, VH and VL of SEQ ID NOS: 3 and 4 (WO2016/055609) (antibody, listed as Mus musculus, V domains shown) VH: EFQLQQSGPELVKPGASVKVSCKASGYAFTSYNMYWVKQSHGKRLEWIGYIDPYNGGSSYNQKFKGKATLTVDKSSSTAYMHLNNLTSEDSAVYYCARGYNNYKAWFAYWGQGTLVTVSA VL: SIVMTQTPKFLLVSAGDRVTITCKASQSVTNDVAWYQQKPGQSPKLLIYYASNRYTGVPDRFTGSGYGTDFTFTISTMQAEDLAVYFCQQDYSSLTFGAGTKLELK",,,,lose binding,lose binding,lose binding
